Test results published in patent US8642555B2, “Prodrugs” (KTB Tumorforschungsgesellschaft mbH, priority 2009, dated 2014).
Numbered stars: 1 amine (or outer) side, 2 acyl side, 3 side chain; on linkers, the order of the positions; unused ones are H or OH. Square brackets hold non-standard residues; d marks the D form. Peptide text beside a SMILES is read from it. * marks the point of attachment. ξ: configuration not given here. X1 = COc1cccc2c1C(=O)c1c(O)c3c(c(O)c1C2=O)C[C@@](O)(C(=O)CO)CC3O[C@H]1C[C@@H](N*)C(O)[C@H](C)O1; Hexanoyl(6-maleimido) = O=C1C=CC(=O)N1CCCCCC(=O)*; PABC = O=C(OCc1ccc(N[*:1])cc1)[*:2]; ξY = NC(Cc1ccc(O)cc1)C(=O)O; ξR = N=C(N)NCCCC(N)C(=O)O; ξL = CC(C)CC(N)C(=O)O; ξS = NC(CO)C(=O)O

Legend:
[1] = in vivo; cited from earlier work
[2] = cited from earlier work

Compound | water-solubility (Water-solubility) | also measured
CC(=O)O[C@H]1C(=O)[C@@]2(C)C([C@H](OC(=O)c3ccccc3)[C@]3(O)C[C@H](OC(=O)[C@H](OC(=O)OCc4ccc(NC(=O)C(CC(C)C)NC(=O)C(CO)NC(=O)C(Cc5ccc(O)cc5)NC(=O)C(Cc5ccc(O)cc5)NC(=O)C(CO)NC(=O)C(CO)NC(=O)C(CCCNC(=N)N)NC(=O)CCCCCN5C(=O)C=CC5=O)cc4)[C@@H](NC(=O)c4ccccc4)c4ccccc4)C(C)=C1C3(C)C)[C@]1(OC(C)=O)CO[C@@H]1C[C@@H]2O (stereo partly drawn) [compound 10, EMC-Arg-Ser-Ser-Tyr-Tyr-Ser-Leu-PABC-Paclitaxel] | excellent water-solubility | –
COc1cccc2c1C(=O)c1c(O)c3c(c(O)c1C2=O)C[C@@](O)(C(=O)CO)CC3O[C@H]1C[C@@H](NC(=O)OCc2ccc(NC(=O)C(CC(C)C)NC(=O)C(CO)NC(=O)C(Cc3ccc(O)cc3)NC(=O)C(Cc3ccc(O)cc3)NC(=O)C(CO)NC(=O)C(CO)NC(=O)C(CCCNC(=N)N)NC(=O)CCCCCN3C(=O)C=CC3=O)cc2)C(O)[C@H](C)O1 (stereo partly drawn) [compound 6, EMC-Arg-Ser-Ser-Tyr-Tyr-Ser-Leu-PABC-DOXO] ({Hexanoyl(6-maleimido)}-[ξR][ξS][ξS][ξY][ξY][ξS][ξL][PABC]-X1) | excellent water-solubility | –
albumin | – | half-life in the systemic circulation [1]: up to 19 days
COc1cccc2c1C(=O)c1c(O)c3c(c(O)c1C2=O)CC(O)(C(=O)CO)CC3OC1CC(NC(=O)C(CCCNC(=N)N)NC(=O)C(N)CO)C(O)C(C)O1 (stereo not drawn) [Ser-Arg-DOXO] | – | half-life of liberation of free doxorubicin from the dipeptide [2]: > 48 h
